Conditions: Hordeum vulgare, whole UniProt chain shown
[1] = pH 3, Thermal, DSC, glycine-HCl 10 mM
[2] = pH 6.25, 25 °C, GdnHCl, Fluorescence, MES 50 mM

B1: Subtilisin-chymotrypsin inhibitor-2A wild type, P01053 (protein)
chain: MSSVEKKPEGVNTGAGDRHNLKTEWPELVGKSVEEAKKVILQDKPEAQIIVLPVGTIVTMEYRIDRVRLFVDKLDNIAQVPRVG
Tm [1]: 63.8 °C
unfolding enthalpy (calorimetric) [1]: 60 kcal/mol
denaturant m value [2]: 1.9 kcal/mol/M
denaturant midpoint (higher = more stable) [2]: 4 M
unfolding free energy [2]: 7.61 kcal/mol
